US20070190054A1 (published 2007)

Target: T1, C3b (purified; species not stated in Examples 12, 13, 19, 20) (Homo sapiens (Human), UniProt P01024 23-667; P01024 749-1663, The two chains are disulfide-linked. The internal thioester of the alpha' chain (Cys-Gln) is broken in C3b. Natural glycosylation is present. The protein carries an Alexa488 label in the …)
T1 construct: also called complement C3b; C3b-A488
Assay: SPR (Biacore 2000), C3b amine-coupled to a CM5 chip, CRIg-Fc injected

Kd: 250 nM
B1: murine CRIg-Fc fusion protein (Fc fusion)
chain: HPTLKTPESVTGTWKGDVKIQCIYDPLRGYRQVLVKWLVRHGSDSVTIFLRDSTGDHIQQAKYRGRLKVSHKVPGDVSLQINTLQMDDRNHYTCEVTWQTPDGNQVIRDKIIELRVRKYNPPRINTEAPTTLHSSLEATTIMSSTSDLTTNGTGKLEETIAGSGRNLPIFAIIFIISLCCI
notes: Produced in CHO cells; also called muCRIg-Fc; MuCRIg Fc; not shown: hinge, CH2 and CH3 domains of murine IgG1
